Laboratory results as given in patent US20230143604A1, “QW DOSING OF GIP RECEPTOR AGONIST PEPTIDE COMPOUNDS AND USES THEREOF” (TAKEDA PHARMACEUTICAL COMPANY LIMITED, priority 2020, published 2023).
Starred links: 1 amine or outer side, 2 acyl side, 3 side chain; linkers in the order of their positions; H or OH if unused. Non-standard residues stand in square brackets, D forms with d. Groups on a side chain read outwards from the residue. No end group written: not given here. *: point of attachment. C20 diacid = O=C(O)CCCCCCCCCCCCCCCCCCC(=O)*; C18 diacid = O=C(O)CCCCCCCCCCCCCCCCC(=O)*; γGlu = O=C(O)[C@H](CCC(=O)[*:2])N[*:1]; NMeY = CN[C@@H](Cc1ccc(O)cc1)C(=O)O; AEEA = NCCOCCOCC(=O)O; E∗ = not defined here; K∗ = not defined here; Aib = CC(C)(N)C(=O)O

T1: full-length human GIPR with an N-terminal FLAG tag, overexpressed on HEK-293T cells (human, UniProt P48546 22-466)
T1 sequence (looked up): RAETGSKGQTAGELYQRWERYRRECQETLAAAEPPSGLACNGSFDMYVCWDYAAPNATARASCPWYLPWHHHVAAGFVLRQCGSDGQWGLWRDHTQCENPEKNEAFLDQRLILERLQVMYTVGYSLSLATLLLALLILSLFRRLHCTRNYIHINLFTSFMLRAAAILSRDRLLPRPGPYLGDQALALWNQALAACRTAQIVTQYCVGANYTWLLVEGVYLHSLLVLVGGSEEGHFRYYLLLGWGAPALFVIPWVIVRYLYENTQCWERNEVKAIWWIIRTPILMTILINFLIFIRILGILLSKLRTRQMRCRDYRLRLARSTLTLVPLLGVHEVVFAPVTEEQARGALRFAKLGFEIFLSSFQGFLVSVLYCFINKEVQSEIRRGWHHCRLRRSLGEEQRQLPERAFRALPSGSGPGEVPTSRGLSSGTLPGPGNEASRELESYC

T2: full-length human GIPR with an N-terminal FLAG tag (human, UniProt P48546 22-466)
T2 sequence (looked up): T1 sequence (looked up)

B1: Compound No. 163 (peptide)
peptide: H-Y[Aib]EGTFISDYSIALDK[Aib]K([AEEA-AEEA-γGlu-C18 diacid])QANFVEWLLAQRG-OH
SMILES: CC[C@H](C)[C@H](NC(=O)[C@H](CO)NC(=O)[C@H](Cc1ccc(O)cc1)NC(=O)[C@H](CC(=O)O)NC(=O)[C@H](CO)NC(=O)[C@@H](NC(=O)[C@H](Cc1ccccc1)NC(=O)[C@@H](NC(=O)CNC(=O)[C@H](CCC(=O)O)NC(=O)C(C)(C)NC(=O)[C@@H](N)Cc1ccc(O)cc1)[C@@H](C)O)[C@@H](C)CC)C(=O)N[C@@H](C)C(=O)N[C@@H](CC(C)C)C(=O)N[C@@H](CC(=O)O)C(=O)N[C@@H](CCCCN)C(=O)NC(C)(C)C(=O)N[C@@H](CCCCNC(=O)COCCOCCNC(=O)COCCOCCNC(=O)CC[C@H](NC(=O)CCCCCCCCCCCCCCCCC(=O)O)C(=O)O)C(=O)N[C@@H](CCC(N)=O)C(=O)N[C@@H](C)C(=O)N[C@@H](CC(N)=O)C(=O)N[C@@H](Cc1ccccc1)C(=O)N[C@H](C(=O)N[C@@H](CCC(=O)O)C(=O)N[C@@H](Cc1c[nH]c2ccccc12)C(=O)N[C@@H](CC(C)C)C(=O)N[C@@H](CC(C)C)C(=O)N[C@@H](C)C(=O)N[C@@H](CCC(N)=O)C(=O)N[C@@H](CCCNC(=N)N)C(=O)NCC(=O)O)C(C)C
B2: Compound No. 156 (peptide)
peptide: Y[Aib]EGTFISDYSIALDK[Aib]AQRK([AEEA-AEEA-γGlu-γGlu-C18 diacid])FVEWLLAQRG-OH
modifications: N-terminus assumed
SMILES: CC[C@H](C)[C@H](NC(=O)[C@H](CO)NC(=O)[C@H](Cc1ccc(O)cc1)NC(=O)[C@H](CC(=O)O)NC(=O)[C@H](CO)NC(=O)[C@@H](NC(=O)[C@H](Cc1ccccc1)NC(=O)[C@@H](NC(=O)CNC(=O)[C@H](CCC(=O)O)NC(=O)C(C)(C)NC(=O)[C@@H](N)Cc1ccc(O)cc1)[C@@H](C)O)[C@@H](C)CC)C(=O)N[C@@H](C)C(=O)N[C@@H](CC(C)C)C(=O)N[C@@H](CC(=O)O)C(=O)N[C@@H](CCCCN)C(=O)NC(C)(C)C(=O)N[C@@H](C)C(=O)N[C@@H](CCC(N)=O)C(=O)N[C@@H](CCCNC(=N)N)C(=O)N[C@@H](CCCCNC(=O)COCCOCCNC(=O)COCCOCCNC(=O)CC[C@H](NC(=O)CC[C@H](NC(=O)CCCCCCCCCCCCCCCCC(=O)O)C(=O)O)C(=O)O)C(=O)N[C@@H](Cc1ccccc1)C(=O)N[C@H](C(=O)N[C@@H](CCC(=O)O)C(=O)N[C@@H](Cc1c[nH]c2ccccc12)C(=O)N[C@@H](CC(C)C)C(=O)N[C@@H](CC(C)C)C(=O)N[C@@H](C)C(=O)N[C@@H](CCC(N)=O)C(=O)N[C@@H](CCCNC(=N)N)C(=O)NCC(=O)O)C(C)C
B3: Compound No. 162 (peptide)
peptide: H-Y[Aib]EGTFISDYSIALDK[Aib]K([AEEA-AEEA-γGlu-C18 diacid])QADFVEWLLAQRG-OH
SMILES: CC[C@H](C)[C@H](NC(=O)[C@H](CO)NC(=O)[C@H](Cc1ccc(O)cc1)NC(=O)[C@H](CC(=O)O)NC(=O)[C@H](CO)NC(=O)[C@@H](NC(=O)[C@H](Cc1ccccc1)NC(=O)[C@@H](NC(=O)CNC(=O)[C@H](CCC(=O)O)NC(=O)C(C)(C)NC(=O)[C@@H](N)Cc1ccc(O)cc1)[C@@H](C)O)[C@@H](C)CC)C(=O)N[C@@H](C)C(=O)N[C@@H](CC(C)C)C(=O)N[C@@H](CC(=O)O)C(=O)N[C@@H](CCCCN)C(=O)NC(C)(C)C(=O)N[C@@H](CCCCNC(=O)COCCOCCNC(=O)COCCOCCNC(=O)CC[C@H](NC(=O)CCCCCCCCCCCCCCCCC(=O)O)C(=O)O)C(=O)N[C@@H](CCC(N)=O)C(=O)N[C@@H](C)C(=O)N[C@@H](CC(=O)O)C(=O)N[C@@H](Cc1ccccc1)C(=O)N[C@H](C(=O)N[C@@H](CCC(=O)O)C(=O)N[C@@H](Cc1c[nH]c2ccccc12)C(=O)N[C@@H](CC(C)C)C(=O)N[C@@H](CC(C)C)C(=O)N[C@@H](C)C(=O)N[C@@H](CCC(N)=O)C(=O)N[C@@H](CCCNC(=N)N)C(=O)NCC(=O)O)C(C)C
B4: Compound No. 181 (peptide)
peptide: Me-Y[Aib]EGTFISDYSIALDR[Aib]HQQ[E∗]FV[K∗]WLLAQK([AEEA-AEEA-γGlu-C18 diacid])PSSGAPPPS-NH2
modifications: not fully specified (residue 1); reading uncertain; also: E* at 21 and K* at 24 marked, meaning not given here
B5: Compound No. 172 (peptide)
peptide: H-Y[Aib]EGTFISDYSI[Aib]LDKIK([AEEA-AEEA-γGlu-C18 diacid])QADFVNWLLAQRG-OH
SMILES: CC[C@H](C)[C@H](NC(=O)[C@H](CCCCN)NC(=O)[C@H](CC(=O)O)NC(=O)[C@H](CC(C)C)NC(=O)C(C)(C)NC(=O)[C@@H](NC(=O)[C@H](CO)NC(=O)[C@H](Cc1ccc(O)cc1)NC(=O)[C@H](CC(=O)O)NC(=O)[C@H](CO)NC(=O)[C@@H](NC(=O)[C@H](Cc1ccccc1)NC(=O)[C@@H](NC(=O)CNC(=O)[C@H](CCC(=O)O)NC(=O)C(C)(C)NC(=O)[C@@H](N)Cc1ccc(O)cc1)[C@@H](C)O)[C@@H](C)CC)[C@@H](C)CC)C(=O)N[C@@H](CCCCNC(=O)COCCOCCNC(=O)COCCOCCNC(=O)CC[C@H](NC(=O)CCCCCCCCCCCCCCCCC(=O)O)C(=O)O)C(=O)N[C@@H](CCC(N)=O)C(=O)N[C@@H](C)C(=O)N[C@@H](CC(=O)O)C(=O)N[C@@H](Cc1ccccc1)C(=O)N[C@H](C(=O)N[C@@H](CC(N)=O)C(=O)N[C@@H](Cc1c[nH]c2ccccc12)C(=O)N[C@@H](CC(C)C)C(=O)N[C@@H](CC(C)C)C(=O)N[C@@H](C)C(=O)N[C@@H](CCC(N)=O)C(=O)N[C@@H](CCCNC(=N)N)C(=O)NCC(=O)O)C(C)C

Tests used:
Assay in all cases: cell-based or functional assay
[1] = molecular target: full-length human GLP-1R with an N-terminal FLAG tag, overexpressed on HEK-293T cells (human, UniProt P43220 24-463)
[2] = molecular target: T1, full-length human GIPR with an …
[3] = molecular target: T2, full-length human GIPR with an …
[4] = molecular target: full-length human GLP-1R with an N-terminal FLAG tag (human, UniProt P43220 24-463)

Binder | Human GLP1R cAMP EC50, HEK293T [1] [pM] | Human GIPR cAMP EC50, HEK293T [2] [pM] | Human GIPR cAMP EC50, HEK293T [3] [pM] | Human GLP1R cAMP EC50, HEK293T [4] [pM]
[NMeY][Aib]EGTFISDYSIALDR[Aib]AQ[Aib]K([AEEA-AEEA-γGlu-γGlu-C18 diacid])FVNWLLAQRG-OH [Compound No. 213] | 40700 | – | – | –
H-Y[Aib]EGTFISDYSIALDKAK([AEEA-AEEA-γGlu-C18 diacid])Q[Aib]DFVEWLLAQRG-OH [Compound No. 161] | 85100 | 0.1 | – | –
B1 | 219000 | 0.2 | – | –
YXEGTFISDYSIAXDKAAQQXFVEWLLAQRG (N-terminus H; Aib at 2, 14; Km at 21 = Lys(2OEGgEgE-C18DA); C-terminus OH) [Compound No. 157] | 437000 | 0.3 | – | –
YXEGTFISDYSIAXDKAAQAXFVEWLLAQRG (N-terminus H; Aib at 2, 14; Km at 21 = Lys(2OEGgEgE-C18DA); C-terminus OH) [Compound No. 158] | 339000 | 0.5 | – | –
[NMeY][Aib]EGTFISDYSIAEDRKHQ[Aib]NFVNWLLAQK([AEEA-AEEA-γGlu-C18 diacid])PSSGAPPPS-NH2 (also: E* at 14 and K* at 17 marked * (not explained)) [Compound No. 184] | – | 0.5 | – | –
Me-Y[Aib]EGTFISDYSI[Aib]LDR[Aib]AQ[Aib]KFVNWLLAQRG-OH (not fully specified (residues 1, 21)) [Compound No. 209] | – | 0.4 | – | –
YXEGTFISDYSIALDRXAQXDFVNWLLAQRPSSGAPPPS (N-methyl Tyr 1; Aib at 2,20; Lys(G5-C18 diacid) at 17; C-terminal OH) [Compound No. 51] | – | – | 0.6 | 14800
B2 | 10200 | 1.3 | – | –
H-Y[Aib]EGTFISDYSIALDKIK([AEEA-AEEA-γGlu-C18 diacid])Q[Aib]DFVEWLLAQRG-OH [Compound No. 160] | 537000 | 0.3 | – | –
[NMeY][Aib]EGTFISDYSI[Aib]LDK[Aib]AQ[Aib]K([AEEA-AEEA-γGlu-γGlu-C18 diacid])FVNWLLAQRG-OH [Compound No. 211] | – | 0.5 | – | –
B3 | 589000 | 0.4 | – | –
[NMeY][Aib]EGTFISDYSI[Aib]LDR[Aib]AQ[Aib]K([AEEA-AEEA-γGlu-γGlu-C20 diacid])FVNWLLAQRG-OH [Compound No. 159] | 11700 | 0.9 | – | –
B4 | – | 0.4 | – | –
[NMeY][Aib]EGTFISDYSI[Aib]LDK[Aib]AQ[Aib]K([AEEA-AEEA-γGlu-γGlu-C18 diacid])FVNWLLAQRG-OH [Compound No. 220] | – | 0.5 | – | –
B5 | 93300 | – | – | –
YXEGTFISDYSIAMDKIHQQDFVNWLLAQXGKKNDWKHNITQ (N-TER cell blank; Aib at 2; Km at 30 = Lys(2OEGgE-C18DA); C-terminus OH) [Compound No. 189] | 219000 | – | – | –
